Reference: the supplement of paper PMC10567573
± gives the standard deviation.

Test: protein stability index of a GFP-peptide fusion (GPS, HEK-293T) (PSI 1-6); higher = more stable
[1] = treatment: DMSO, c terminus: a fixed tail appended
[2] = treatment: MLN4924 1 uM, 8 h, c terminus: a fixed tail appended
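Also: 24-mer peptide tiles fused after GFP, lentivirally expressed, FACS-sorted into six equal bins by GFP/DsRed ratio, decoded by Illumina sequencing, PSI is the read-weighted mean bin number.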

Sequence	protein stability index [1]	protein stability index [2]	protein stability index (treatment: DMSO, c terminus: native)	protein stability index (treatment: MLN4924 1 uM, 8 h, c terminus: native)
VGEFPIISPGRVYEYTSCTTFSTT [FBXO3]	2.3 ± 0.22	2.33 ± 0.32		
VGVDGVRAFLQTYSHEVSLTADSR [PCDHGA10]	2.49 ± 0.37	2.61 ± 0.39		
VHNAMDNYECNLYTFLYLVCISTK [FEM1B]	2.82 ± 0.59	2.2 ± 0.53		
VHRDLKPENLLLASKCKGAAVKLA [CAMK2B]	2.83 ± 0.38	2.75 ± 0.25		
VHRKSCSTGEAGTDGDHNVYPRPP [ZC2HC1C]	4.29 ± 0.33	4.45 ± 0.37		
VILFSSAVYFAEADDPTSGFSSIP [KCNA3]	3.01 ± 1.6	2.56 ± 1.1		
VKGRVRCLTAGPEVAAQLPAVRQL [ZSWIM9]	3.19 ± 0.18	3.12 ± 0.43		
VKKKKEEGVIDSSDKEIVAEAERL [EIF5]	5.04 ± 0.59	5.46 ± 0.2		
VKLNVGGSLHYTTLRTLTGQDTML [KCTD13]	2.45 ± 0.47	2.27 ± 0.28		
VKLPLPAERVTLADFKGVLQRPSY [DVL3]	2.5 ± 0.19	2.73 ± 0.36		
VKYNSCADRPFSAPWWFWLSLTGV [POMT2]	2.59 ± 0.35	2.72 ± 0.6		
VLDILTRLPESVERLTGVSISQVN [FLOT1]	2.43 ± 0.23	2.3 ± 0.48		
VLEVTEESIDFDQGELADQDVDPV [FBXO33]	5.34 ± 0.19	5.57 ± 0.2		
VLFLDHVMYTIHMGCHGFRDPFEC [IKZF1]	3 ± 0.26	2.96 ± 0.49		
VLRGRLYAIAGYDGNSLLSSIECY [KLHL12]	1.91 ± 0.14	2.28 ± 0.13		
VLRTYLELVLCVLVSIRNNRNLQK [FBXO33]	2.96 ± 0.71	2.64 ± 0.51		
VPKDQRLQAIKAAIMLLPDENREV [DLC1]	3.82 ± 0.18	3.85 ± 0.42		
VQLATLAQRVKEVLPHVPLGVIQR [AUP1]	2.51 ± 0.16	2.19 ± 0.29		
VQSLQLSPRTRGSWSQPQPLKAPC [RASAL3]	3.54 ± 0.41	3.68 ± 0.098		
VQYLGQAPELLGGAEPGTYLTGTI [ADAMTS4]	2.33 ± 0.7	2.98 ± 0.72		
VRANDINYQDQIPRTLEEFVGFH [FEM1B]			3.21 ± 0.16	3.2 ± 0.48
VRENVPRVLNSAKEKSSTVPIPTV [SOAT1]	4.161 ± 0.036	4.16 ± 0.14		
VRKPAEAERYKLERLAEAEKSQLI [FLOT1]	4.46 ± 0.26	4.49 ± 0.14		
VSCGFGGGAGSGFGGGYGGGLGGG [KRT13]	2.32 ± 0.35	2.2 ± 0.5		
VSIIDTELKVKDSQPIDLSACTVA [TRIP13]	3.28 ± 0.45	3.33 ± 0.29		
VSITLLALVYLPGVIAAIVQLHNG [STEAP1]	3.5 ± 0.33	3.11 ± 0.14		

Sequence	protein stability index [1]	protein stability index [2]	protein stability index (treatment: DMSO, c terminus: native)	protein stability index (treatment: MLN4924 1 uM, 8 h, c terminus: native)
VSPPESPTVTTSWQSESLPVSLSA [BCL2L13]	4.43 ± 0.08	4.37 ± 0.27		
VSTVSHADADCFVCVFLSHGEGNH [CASP6]	2.37 ± 0.2	2.18 ± 0.17		
VTFRDVAVDFTQEEWGQLDPTQRI [ZNF8]	3.8 ± 0.36	3.82 ± 0.33		
VTLLVALKVRYRERITILRGNHES [PPP2CA]	2.78 ± 0.5	2.67 ± 0.44		
VTVRVPTHEEGSYLFWEFATDNYD [ACBD3]	2.19 ± 0.34	2.31 ± 0.62		
VVEKLNLFLDLLQSYKDLCERHEK [SNX8]	2.19 ± 0.32	2.23 ± 0.25		
VVENAEKILGYLNTNVLSRDLIPP [SLC6A17]	2.82 ± 0.15	2.84 ± 0.38		
VVFPYTSKSCMRAVLEYLYTGMFT [RHOBTB2]	2.81 ± 0.42	2.77 ± 1.1		
VVTMTTVGYGDMHPVTIGGKIVGS [KCNA3]	2.33 ± 0.4	2.37 ± 0.45		
VVYSKAASVPKVETVKSDNKDDDI [EIF5]	5.23 ± 0.13	5.19 ± 0.11		
VWDASRAPRGTPDPGLGEGPALWL [PLEKHN1]	2.74 ± 0.25	2.79 ± 0.38		
VYKDGEHGEEQRITIEPGTSYRLQ [PTPRD]	4.81 ± 0.15	5.03 ± 0.16		
VYSQASTMSIPVAMETDGPLFEDV [PPP2R5C]	3.94 ± 0.31	4.14 ± 0.15		
VYTGKLLLNLVDHTEVVRDLTFAP [WSB1]	2.2 ± 0.28	2.36 ± 0.35		
WALLCLGLLLPGGGAAWSIGAAPF [EMID1]	3.54 ± 0.26	3.22 ± 0.19		
WCLHVNNWLQVSFTAKHANKVKVL [FSD1]	3.04 ± 0.73	2.93 ± 0.5		
WDMNSAPRLVSETAERKQEQKTGT [MFSD9]	5.44 ± 0.2	5.38 ± 0.13		
WDPACLPLPPPPPAFKSMEVANFY [CEBPB]	3.02 ± 0.28	3.28 ± 0.47		
WEASSLGLVTAALHMVIVAAFTWA [KMT2E]	3.44 ± 0.31	3.16 ± 0.74		
WFQRQYLSTPDSQSLRCDLIRYIC [INTS3]	2.25 ± 0.35	2.28 ± 0.44		
WGPWGPWGDCSRTCGGGVQFSSRD [ADAMTS4]	2.46 ± 0.36	2.16 ± 0.14		
WKKQQKCDECGKIFSQSSALILHQ [ZNF396]	2.54 ± 0.25	2.91 ± 0.49		
WLLTHLLWFANAHLLSWFSPTIIF [DHCR7]	3.36 ± 0.17	2.96 ± 0.3		
WMHTPEALSKHFIPYNAKFLGSTE [GULP1]	2.27 ± 0.12	2.3 ± 0.16		
WSLGVIMYEMLIGYPPFCSETPQE [STK38L]	2.85 ± 0.59	2.52 ± 0.44		
WSQPITTGKAPSPRAAHACATVGN [KLHDC2]	3.84 ± 0.3	3.92 ± 0.2		

Sequence	protein stability index [1]	protein stability index [2]	protein stability index (treatment: DMSO, c terminus: native)	protein stability index (treatment: MLN4924 1 uM, 8 h, c terminus: native)
WTMQAYERNFWDPSPQLDTQQEIK [WDR41]	3.16 ± 0.19	3.46 ± 0.47		
YAKKESDLNGAQIKLREYEAALNS [LMNB1]	4.07 ± 0.2	4.07 ± 0.3		
YARYSLKSIDPVLMAPTCVFLASK [CCNC]	2.16 ± 0.65	2 ± 0.3		
YDFMNSAFSPIVILTERVSLPFKP [MIA2]	2.22 ± 0.62	2.17 ± 0.18		
YDPRFNSWIQLPPMQERRASFYAC [KLHL14]	2.14 ± 0.27	2.22 ± 0.17		
YDYPEEEQLSGAGYRVSAALEEAD [EID1]	5.38 ± 0.31	5.22 ± 0.32		
YEAGVLAFYDVTGGMSHLHTFRAT [TRIM14]	2.47 ± 0.45	2.07 ± 0.45		
YFLRGSLPWQGLKADTLKERYQKI [CSNK1G3]	2.17 ± 0.14	2.14 ± 0.39		
YHRETEGEEQSQYMHVGSCQHLSS [KCNA3]	4.09 ± 0.32	4.71 ± 0.47		
YICPDYQSYFKTIEDFQQKILLTK [KRT36]	2.33 ± 0.59	2.13 ± 0.28		
YIHFFHTVLKQIAPEYFEKNEPYL [DENND6A]	1.96 ± 0.5	2.77 ± 0.53		
YKFDPKTKRILTLQKANSWFNCRK [MMP1]	2.67 ± 0.27	2.54 ± 0.28		
YLTVKVWDLNMENRPIETYQVHDY [PPP2R2B]	2.25 ± 0.032	2.31 ± 0.2		
YNVYSTFQSHEPEFDYLKSLEIEE [PPP2R2B]	3.86 ± 0.2	3.92 ± 0.26		
YQQIKAGAYDFPSPEWDTVTPEAK [CAMK2B]	3.89 ± 0.34	4.15 ± 0.32		
YQQLKLEGPGEQETKLDLISKGEE [SLC29A1]	5.25 ± 0.28	5.28 ± 0.13		
YRAITSAYYRGAVGALLVYDIAKH [RAB11A]	2.43 ± 0.51	2.16 ± 0.33		
YRALLSGSNPPYLPFRDASFGNCT [CDC14A]	2.44 ± 0.091	2.49 ± 0.17		
YRSPEPDPYLSYRWKRRRSYSREH [CLK3]	3.55 ± 0.33	3.71 ± 0.12		
YRYCCKLNKKLKSYSLSRKKIVHY [CDC14A]	2.27 ± 0.38	2.25 ± 0.53		
YSKESIIFGASSVDFSLSGRLLFA [GNB5]	2.84 ± 0.74	2.78 ± 0.68		
YSLAPNTPINQNVSLHQASLGGCS [NFE2L1]	3.54 ± 0.1	3.65 ± 0.18		
YSQKESGHSNWLGDPEEPLTGFSW [ATL3]	1.92 ± 0.44	2.78 ± 0.1		
YSYLVLLFPVFLATDYLRYKPVVL [SLC19A2]	3.56 ± 0.34	3.01 ± 0.51		
YTFTDTFTEKLWPLFYPGIRAGRK [TRIM39]	2.69 ± 0.84	2.46 ± 0.5		
YTSAGTYGLDSVKKKCLEWLLNNL [GMCL1]	2.17 ± 0.19	2.16 ± 0.26		
